Legend:
[1] = target: T1, GST-PTPL1 PDZ domain 2 (Homo sapiens (Human)), Q12923; test: G assay titration, PDZ 1 ug/ml
T1 chain: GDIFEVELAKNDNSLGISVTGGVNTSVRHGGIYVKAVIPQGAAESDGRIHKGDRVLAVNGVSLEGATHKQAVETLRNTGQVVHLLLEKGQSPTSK

[2] = target: T2, GST-KIAA0807(S) PDZ domain 1 (Homo sapiens (Human)), Q6P0Q8; test: G assay titration, PDZ 0.5 ug/ml
T2 chain: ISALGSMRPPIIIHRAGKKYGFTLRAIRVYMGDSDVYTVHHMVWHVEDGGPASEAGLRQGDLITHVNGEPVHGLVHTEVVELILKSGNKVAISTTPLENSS

[3] = target: T3, GST-KIAA1634 PDZ domain 2 (Homo sapiens (Human)), Q5TCQ9; test: G' assay; also: key of the grades not given here
T3 chain: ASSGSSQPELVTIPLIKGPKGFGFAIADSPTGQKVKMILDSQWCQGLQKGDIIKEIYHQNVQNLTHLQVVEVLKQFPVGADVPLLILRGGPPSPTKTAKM

[4] = target: T4, GST-MINT1 PDZ domain 2 (Mus musculus (Mouse)), B2RUJ5; test: G' assay; also: key of the grades not given here
T4 chain: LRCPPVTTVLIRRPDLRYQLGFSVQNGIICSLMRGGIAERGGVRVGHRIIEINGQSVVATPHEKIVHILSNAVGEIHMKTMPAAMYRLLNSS

[5] = target: T5, GST-PTPL1 PDZ domain 4 (Homo sapiens (Human)), Q12923; test: G' assay; also: key of the grades not given here
T5 chain: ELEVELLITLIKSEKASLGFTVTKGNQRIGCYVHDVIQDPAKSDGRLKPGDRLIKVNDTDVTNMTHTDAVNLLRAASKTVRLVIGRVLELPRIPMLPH

[6] = target: T6, GST-INADL PDZ domain 8 (Homo sapiens (Human)), Q8NI35; test: G' assay; also: key of the grades not given here
T6 chain: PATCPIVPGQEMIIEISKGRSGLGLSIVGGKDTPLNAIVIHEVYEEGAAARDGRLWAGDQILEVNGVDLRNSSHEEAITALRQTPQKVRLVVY

[7] = target: T1, GST-PTPL1 PDZ domain 2 (Homo sapiens …); test: G' assay; also: key of the grades not given here
[8] = target: T7, GST-AIPC PDZ domain 1 (Homo sapiens (Human)), O15018; test: G' assay; also: key of the grades not given here
T7 chain: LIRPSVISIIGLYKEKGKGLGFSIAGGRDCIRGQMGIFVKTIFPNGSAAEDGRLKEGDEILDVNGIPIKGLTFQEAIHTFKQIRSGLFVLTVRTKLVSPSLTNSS

[9] = target: T8, GST-FLJ 10324 PDZ domain 1 [GST: P08515]; test: G' assay; also: key of the grades not given here
T8 chain: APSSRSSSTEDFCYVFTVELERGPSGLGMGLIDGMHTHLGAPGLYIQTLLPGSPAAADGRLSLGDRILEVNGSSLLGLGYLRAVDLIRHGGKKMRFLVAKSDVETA

[10] = target: GST-Atrophin-1 Interacting Protein PDZ domain 5 (Rattus norvegicus (Rat)), O88382; test: G' assay; also: key of the grades not given here
Chain of GST-Atrophin-1 Interacting Protein PDZ domain 5 (Rattus norvegicus (Rat)), O88382 (O88382 1128-1225): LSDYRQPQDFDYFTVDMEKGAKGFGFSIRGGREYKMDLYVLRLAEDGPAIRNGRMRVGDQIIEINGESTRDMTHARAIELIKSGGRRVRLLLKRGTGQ

[11] = target: T9, GST-HEMBA 1003117 PDZ domain 1 (Homo sapiens (Human)), Q96JH8; test: G' assay; also: key of the grades not given here
T9 chain: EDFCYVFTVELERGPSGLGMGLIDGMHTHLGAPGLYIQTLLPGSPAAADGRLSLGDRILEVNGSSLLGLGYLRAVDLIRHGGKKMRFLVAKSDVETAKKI

[12] = target: GST-KIAA807 [GST: P08515]; test: G' assay; also: key of the grades not given here
Chain of GST-KIAA807 [GST: P08515] (P08515 whole entry, the tested form may be a part): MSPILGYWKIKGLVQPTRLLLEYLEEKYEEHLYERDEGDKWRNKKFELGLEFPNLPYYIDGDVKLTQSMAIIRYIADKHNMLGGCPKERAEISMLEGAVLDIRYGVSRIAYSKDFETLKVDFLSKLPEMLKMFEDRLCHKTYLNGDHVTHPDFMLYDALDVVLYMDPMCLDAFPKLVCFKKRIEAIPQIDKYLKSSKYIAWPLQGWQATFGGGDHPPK

[13] = target: T2, GST-KIAA0807(S) PDZ domain 1 (Homo …); test: G' assay; also: key of the grades not given here
[14] = target: T10, GST-MUPP1 PDZ domain 13 (Homo sapiens (Human)), O75970; test: G' assay; also: key of the grades not given here
T10 chain: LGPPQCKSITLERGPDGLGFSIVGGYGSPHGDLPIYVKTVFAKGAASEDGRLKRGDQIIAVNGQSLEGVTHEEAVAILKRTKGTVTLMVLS

[15] = target: T11, GST-GRIP 1 PDZ domain 3 (Homo sapiens (Human)), Q9Y3R0; test: G' assay; also: key of the grades not given here
T11 chain: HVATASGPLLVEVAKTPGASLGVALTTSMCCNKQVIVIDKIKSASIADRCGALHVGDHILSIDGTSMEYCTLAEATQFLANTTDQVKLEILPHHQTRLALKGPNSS

[16] = target: T12, GST-FLJ00011 PDZ domain 1 (Homo sapiens (Human)), Q9H5P4; test: G' assay; also: key of the grades not given here
T12 chain: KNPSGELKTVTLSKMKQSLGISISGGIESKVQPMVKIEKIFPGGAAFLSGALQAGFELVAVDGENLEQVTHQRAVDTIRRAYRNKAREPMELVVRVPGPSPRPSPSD

[17] = target: T13, GST-TIP1 PDZ domain 1 (Table 9 insert) (Homo sapiens (Human)), O14907; test: G' assay; also: key of the grades not given here
T13 chain: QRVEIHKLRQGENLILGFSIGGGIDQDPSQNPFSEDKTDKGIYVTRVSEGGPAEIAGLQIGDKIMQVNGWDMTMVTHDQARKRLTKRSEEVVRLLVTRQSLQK

[18] = target: T14, GST-MINT1 PDZ domains 1, 2, Q02410; test: G' assay; also: key of the grades not given here
T14 chain: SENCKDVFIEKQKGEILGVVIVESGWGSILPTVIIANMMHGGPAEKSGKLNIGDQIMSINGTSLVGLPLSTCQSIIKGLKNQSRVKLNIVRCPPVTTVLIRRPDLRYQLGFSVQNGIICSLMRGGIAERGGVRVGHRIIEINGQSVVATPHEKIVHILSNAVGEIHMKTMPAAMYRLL

[19] = target: GST-BAI-1 Associated Protein PDZ domain 3 (Homo sapiens (Human)), Q96QZ7; test: G' assay; also: key of the grades not given here
Chain of GST-BAI-1 Associated Protein PDZ domain 3 (Homo sapiens (Human)), Q96QZ7 (Q96QZ7 other isoform, or with tags, fused parts or gaps): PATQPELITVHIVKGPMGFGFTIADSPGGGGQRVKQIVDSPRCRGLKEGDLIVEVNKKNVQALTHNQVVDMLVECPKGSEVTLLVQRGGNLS

[20] = target: T15, GST-Shank 1 PDZ domain 1 (Homo sapiens (Human)), Q9UPX8; test: G' assay; also: key of the grades not given here
T15 chain: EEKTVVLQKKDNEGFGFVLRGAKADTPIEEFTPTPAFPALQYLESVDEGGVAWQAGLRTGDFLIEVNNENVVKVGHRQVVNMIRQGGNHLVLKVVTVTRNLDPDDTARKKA

[21] = target: T16, GST-Syntrophin gamma 1 PDZ domain 1 (Homo sapiens (Human)), Q9NSN8; test: G' assay; also: key of the grades not given here
T16 chain: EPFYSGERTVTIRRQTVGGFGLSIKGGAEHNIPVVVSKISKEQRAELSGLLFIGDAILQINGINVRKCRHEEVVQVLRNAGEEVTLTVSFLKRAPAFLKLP

[22] = target: GST-PIST PDZ domain 1 (Mus musculus (Mouse)), Q8BH60; test: G' assay; also: key of the grades not given here
[23] = target: T15, GST-Shank 1 PDZ domain 1 (Homo sapiens …); test: G assay titration, PDZ 5 ug/ml
[24] = target: GST-TAX IP2 PDZ domain 1 [GST: P08515]; test: G assay titration, PDZ 1 ug/ml
Chain of GST-TAX IP2 PDZ domain 1 [GST: P08515] (P08515 whole entry, the tested form may be a part): as the sequence (P08515 whole entry, the tested form may be a part) above

[25] = target: GST-TAX IP2 PDZ domain 1 [GST: P08515]; test: G' assay; also: key of the grades not given here
[26] = target: GST-KIAA1634 PDZ domain 1 (Homo sapiens (Human)), Q5TCQ9; test: G assay titration, PDZ 1 ug/ml
Chain of GST-KIAA1634 PDZ domain 1 (Homo sapiens (Human)), Q5TCQ9 (Q5TCQ9 401-502): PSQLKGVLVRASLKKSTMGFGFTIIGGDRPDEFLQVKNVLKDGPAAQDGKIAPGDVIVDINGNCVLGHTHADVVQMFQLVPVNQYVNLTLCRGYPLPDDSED

[27] = target: T17, GST-NOS1 PDZ domain 1 (Homo sapiens (Human)), P29475; test: G' assay; details: remark: other sources report otherwise; also: key of the grades not given here
T17 chain: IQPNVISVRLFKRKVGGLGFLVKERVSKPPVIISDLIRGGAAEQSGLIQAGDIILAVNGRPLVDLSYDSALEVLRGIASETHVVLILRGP

[28] = target: T18, GST-EZRIN Binding Protein 50 PDZ domain 2 (Homo sapiens (Human)), O14745; test: G' assay; also: key of the grades not given here
T18 chain: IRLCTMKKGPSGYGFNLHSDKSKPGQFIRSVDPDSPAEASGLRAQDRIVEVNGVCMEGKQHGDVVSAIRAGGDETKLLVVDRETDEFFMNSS

[29] = target: GST-KIAA1634 PDZ domain 1 (Homo sapiens (Human)), Q5TCQ9; test: G' assay; also: key of the grades not given here
[30] = target: T19, GST-NeDLG PDZ domains 1, 2, Q92796; test: G' assay
T19 chain: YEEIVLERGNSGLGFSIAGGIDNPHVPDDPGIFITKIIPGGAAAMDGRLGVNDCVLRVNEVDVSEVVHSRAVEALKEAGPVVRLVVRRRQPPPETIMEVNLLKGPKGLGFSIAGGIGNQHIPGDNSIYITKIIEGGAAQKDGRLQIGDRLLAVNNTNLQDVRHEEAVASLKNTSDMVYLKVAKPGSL

[31] = target: T20, GST-ZO-1 PDZ domain 1 (Rattus norvegicus (Rat)), A0A0G2; test: G' assay; also: key of the grades not given here
T20 chain: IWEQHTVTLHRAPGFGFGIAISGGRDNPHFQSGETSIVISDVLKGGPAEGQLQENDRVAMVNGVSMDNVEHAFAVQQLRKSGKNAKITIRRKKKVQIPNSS

[32] = target: T21, GST-NeDLG PDZ domain 3 (Mus musculus (Mouse)), P70175; test: G' assay; also: key of the grades not given here
T21 chain: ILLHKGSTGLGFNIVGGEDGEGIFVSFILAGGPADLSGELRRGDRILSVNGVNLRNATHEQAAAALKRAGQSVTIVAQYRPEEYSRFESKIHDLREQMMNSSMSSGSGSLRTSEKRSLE

[33] = target: T22, GST-Shank 3 PDZ domain 1 (human (hypothetical, computer cloned)), Q9BYB0; test: G' assay; also: key of the grades not given here
T22 chain: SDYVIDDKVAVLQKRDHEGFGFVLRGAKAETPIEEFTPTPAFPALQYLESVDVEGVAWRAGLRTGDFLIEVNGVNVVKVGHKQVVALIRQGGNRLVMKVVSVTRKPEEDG

[34] = target: T23, GST-EZRIN Binding Protein 50 PDZ domain 1 (Homo sapiens (Human)), O14745; test: G' assay; also: key of the grades not given here
T23 chain: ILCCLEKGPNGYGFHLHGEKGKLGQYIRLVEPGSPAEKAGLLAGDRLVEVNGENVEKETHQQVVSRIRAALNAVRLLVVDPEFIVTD

[35] = target: GST-PSD95 PDZ domains 1, 2, 3 (Homo sapiens), P78352; test: G' assay; also: key of the grades not given here
Chain of GST-PSD95 PDZ domains 1, 2, 3 (Homo sapiens), P78352 (P78352 62-395): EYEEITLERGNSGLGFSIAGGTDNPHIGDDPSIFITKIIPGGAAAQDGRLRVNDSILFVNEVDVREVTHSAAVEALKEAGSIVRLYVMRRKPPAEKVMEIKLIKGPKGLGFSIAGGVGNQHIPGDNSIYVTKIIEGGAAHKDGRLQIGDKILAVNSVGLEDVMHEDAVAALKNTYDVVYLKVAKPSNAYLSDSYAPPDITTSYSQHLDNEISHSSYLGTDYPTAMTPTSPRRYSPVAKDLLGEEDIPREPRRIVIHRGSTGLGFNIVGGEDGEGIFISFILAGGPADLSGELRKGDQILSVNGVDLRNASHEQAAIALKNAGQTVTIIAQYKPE

[36] = target: GST-DLG1 PDZ domains 1, 2 (Homo sapiens), Q12959; test: G' assay; also: key of the grades not given here
[37] = target: T24, GST-Atrophin-1 Interacting Protein PDZ domain 1 (Rattus norvegicus (Rat)), O88382; test: G' assay; also: key of the grades not given here
T24 sequence (O88382 408-511): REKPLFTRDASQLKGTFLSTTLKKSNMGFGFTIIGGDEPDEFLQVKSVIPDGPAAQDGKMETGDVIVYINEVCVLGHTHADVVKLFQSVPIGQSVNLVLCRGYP

[38] = target: T24, GST-Atrophin-1 Interacting Protein PDZ …; test: G assay titration, PDZ 5 ug/ml

B1: PTEN (peptide)
peptide: DSDPENEPFDEDQHTQITKV
modifications: not checked
300 nM: Kd [1] | Kd [2]
1 A450 class: Classification [4] | Classification [5] | Classification [6] | Classification [8] | Classification [9] | Classification [11] | Classification [15] | Classification [18] | Classification [21] | Classification [22]
2 A450 class: Classification [10] | Classification [17] | Classification [19]
3 A450 class: Classification [16] | Classification [20]
5 A450 class: Classification [3] | Classification [12] | Classification [13] | Classification [14]
4 A450 class: Classification [7]
1500 nM: Kd [23]

B2: AKT1 (peptide)
peptide: VDSERRPHFPQFSYSASSTA
modifications: not checked
1 A450 class: Classification [12] | Classification [13]
2500 nM: Kd [24]
4 A450 class: Classification [25]

B3: Neuroligin (peptide)
peptide: TFAAGFNSTGLPHSTTRV
modifications: not checked
100 nM: Kd [26]
250 nM: Kd [38]
4 A450 class: Classification [29]
300 nM: Kd [23]
1 A450 class: Classification [27] | Classification [5] | Classification [6] | Classification [7] | Classification [9] | Classification [28] | Classification [17] | Classification [18] | Classification [30] | Classification [31] | Classification [32]
2 A450 class: Classification [3] | Classification [34] | Classification [35] | Classification [36] | Classification [20] | Classification [37]
3 A450 class: Classification [12] | Classification [13] | Classification [33]
